Measurements as given in IntAct's records for PubMed 23917616.

B1: Myotubularin (Homo sapiens), Q13496 (parent)
chain: MASASTSKYNSHSLENESIKRTSRDGVNRDLTEAVPRLPGETLITDKEVIYICPFNGPIKGRVYITNYRLYLRSLETDSSLILDVPLGVISRIEKMGGATSRGENSYGLDITCKDMRNLRFALKQEGHSRRDMFEILTRYAFPLAHSLPLFAFLNEEKFNVDGWTVYNPVEEYRRQGLPNHHWRITFINKCYELCDTYPALLVVPYRASDDDLRRVATFRSRNRIPVLSWIHPENKTVIVRCSQPLVGMSGKRNKDDEKYLDVIRETNKQISKLTIYDARPSVNAVANKATGGGYESDDAYHNAELFFLDIHNIHVMRESLKKVKDIVYPNVEESHWLSSLESTHWLEHIKLVLTGAIQVADKVSSGKSSVLVHCSDGWDRTAQLTSLAMLMLDSFYRSIEGFEILVQKEWISFGHKFASRIGHGDKNHTDADRSPIFLQFIDCVWQMSKQFPTAFEFNEQFLIIILDHLYSCRFGTFLFNCESARERQKVTERTVSLWSLINSNKEKFKNPFYTKEINRVLYPVASMRHLELWVNYYIRWNPRIKQQQPNPVEQRYMELLALRDEYIKRLEELQLANSAKLSDPPTSPSSPSQMMPHVQTHF
partner: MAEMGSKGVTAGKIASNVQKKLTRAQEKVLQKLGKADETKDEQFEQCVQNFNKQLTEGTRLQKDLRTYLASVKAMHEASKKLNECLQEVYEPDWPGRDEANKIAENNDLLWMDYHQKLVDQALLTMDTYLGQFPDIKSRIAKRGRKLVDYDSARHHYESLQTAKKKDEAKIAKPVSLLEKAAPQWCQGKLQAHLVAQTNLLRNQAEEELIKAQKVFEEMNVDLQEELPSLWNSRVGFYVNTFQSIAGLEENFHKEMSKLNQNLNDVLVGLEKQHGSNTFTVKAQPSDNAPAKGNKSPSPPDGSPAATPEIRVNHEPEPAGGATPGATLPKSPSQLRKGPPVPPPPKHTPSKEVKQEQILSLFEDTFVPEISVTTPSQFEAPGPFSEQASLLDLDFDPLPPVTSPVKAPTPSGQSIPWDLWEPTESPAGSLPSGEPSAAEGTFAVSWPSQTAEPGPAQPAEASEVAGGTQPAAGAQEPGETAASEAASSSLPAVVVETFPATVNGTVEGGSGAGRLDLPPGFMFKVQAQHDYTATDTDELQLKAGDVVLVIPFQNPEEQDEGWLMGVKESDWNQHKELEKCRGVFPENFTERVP

Variants of: B1
Details: with bin1_human BIN1, O00499

effect of a mutation on the interaction	Variant
disrupting interaction	C375S
